Assay: soluble on expression in E. coli; label from the status in PepcDB or PDB records

MGSDKIHHHHHHMVEPSKVVGLISDFGDSPYTGIMRAVIKSISRELQIIDIDHSIPSFSPLAGAYVVAHTYQWLPKGSVIVAVVDPGVGTSRYALAVETENYVFIGPDNGVLYPAAASDGIKRVYALREKDVNSLARMKTSSTAGTVKPWSISRTFHGRDVFAPAGALIAAGHASLEELGDEIEPERMKRASIDHVEKLGPSTFRATVVYIDKFGNVALSIRPKKLGINLSLYKSVVLGTHTTSNTIRMGKTFGDANPGELVAYENSFGHLEIAVNRGNAAKKLGLELEARVEIELLENSGPAPNGSRGVRNADLLGVSSRSLGETIW
soluble on expression in E. coli: not soluble

MAHHHHHHMTSVIQRLRRIEVEGLENLRNLGGYHTNNSTKTTRWGVVYRSDQLFRVPADVAQMVLVDQLHIRHVYDLRANTEVSAKRYSLPHMQYTSLPIEMSNANRFLKEGENLKQVATAHRFMQEIYREFVRSYAPTMGLIIKGIIDSKASCDNAFLIHCTAGKDRTGWCCYVLLTLLDVMEEEKRSDYLLTNTFVGIPADAWDYDGAEGMGEEAMTALWTVFDEYLDAALDELNKMGGIYKYAKSHMGLTDEDIDELRELMLE
soluble on expression in E. coli: soluble

MGSDKIHHHHHHMSDVIEQYFVKNEPYYRPVADEVKLYEAAYSVRMPMMLKGPTGCGKTRFVEYMAWKLGKPLITVACNEDMTASDLVGRFLLDAQGTRWQDGPLTTAARYGAICYLDEVVEARQDTTVVIHPLTDNRRVLPLEKKGELVGAHPDFQLVISYNPGYQSLMKDLKQSTKQRFGALDFNYPQHDIETEIVSHETGIDSAIADKLVSIAERARNLKGHGLDEGISTRMLIYAGNLIAKGVDVHAACRMALVRPITDDPDMRDALDAAVTTFF
soluble on expression in E. coli: not soluble

MGSDKIHHHHHHMHIKILKNRYPNIVVSKNPIKSSSDTISFFEEPYYFTIPKSNLSEEEAMLLHTLFPEPLPTFPKESTQFWFDLLFGNKELAMTNEKETYRITQFHIKTTTTKSMLQEWQKALLSFFSPEAELIMFSTNYGVIIEKSTGSLLGEEELIAVAGTLENDFYIQSTFFMGLFHPLNDRLRGLFAEERAIFNHNNREVVQTVASESLKVIALRMKESLITNELNDLFHQDDTWIPLIHTLFKNQGNISLTAKELFMHRNTIQYRLDKFYEQTNLSLRKMDGLLLAYLSTLQTNNSNHE
soluble on expression in E. coli: not soluble

MGSDKIHHHHHHMTQLIMRPRPGKIKLGLKASQAPAQLMDRLQYRPEVFEFFTSATDFEPEAFQTLKTAVQFVKTTVTEQIVIHHPMSYQGVHLDQLLDPHREAAAYQFLQTSTAQLLALATELDVKVLVHGGYGSDSGRLIDEYESLQVARDVVFERLDNLVRQASGHVVIENGVTASFMYGDPQLDERIIQHHYPLVCDLSHVFIALHGDMELTMLALKRLAPLIQHYHLVDSMGTRHDSLPLGQGLIDWQRVLPVLNPHATMIYEVPDETDATCANMLSSYHYLRALELRSIEGGQAND
soluble on expression in E. coli: not soluble

MKKEFSAGGVLFKDGEVLLIKTPSNVWSFPKGNIEPGEKPEETAVREVWEETGVKGEILDYIGEIHYWYTLKGERIFKTVKYYLMKYKEGEPRPSWEVKDAKFFPIKEAKKLLKYKGDKEIFEKALKLKEKFKL
soluble on expression in E. coli: soluble

MSLRTTIADVAQAAGVSVSTVSRALRGLDRVSPETRERIEQEAKRLHFSFSKSASSLASGKTMRVAVLLPNEISSWFNAHAFEGIYEVMSKAGYDIVPYIVWTQDDLDAFFQNLPGNRNVDAVIEASFDFDEAKKQVLGNLTIPVVGMNAPSTHGLDAGVAIDDEASMATIVRFLKSLGHKTLAYIEQPINTTPFVCSDRLRKKGFSEASQACGYADEDIIVMPSLSHIDARSEQDIYSGIVAQLLSAPKQPTAICVSVDAVAAPLLKELRRMGWRVPQDVSLVGFDDDDTATALDLTTMHQDPAEIGRIAARKTLALLNGETLDEPFTVMPTSLVLRGTTERVSEGHHHHHH
soluble on expression in E. coli: soluble

MFPSFLRRTAAKNGSYANEISSSIIINRPAERLFDLWRKPETLPILMGHFASIEILNHTDSNWRINTPIGSLIEWQARIIDEKPGEYIHWRSLEGARVPNEGRLSFQPAASEAGTAVTLTIRYNPPGGLIGKKIGQMFDMFSRDMLTKTLYRFKKLAEDERVLEHHHHHH
soluble on expression in E. coli: not soluble

MKKNLLLLLCLFCLVNVCHAKAKDTFTVFQLNLWHGCTKVPNGDQGIIDVLDQMDADVVFLCEIRDGKQFIPHVIEELEKRGKHYYGETFDLAIGVLSKFKPDSWTKCCIVPGDEGRAMVKMVATIEGQPVSFYSCHLDYRHYQCYMPRGYNGTTWKKMDKPITDEEEVLKANRQSFRDETIRAFIQEVQSDIQQGRPIIMGGDFNEPSHLDWQADTKDLWDHNGAIIHWDCSMMLSKAGFKDAYREKFPNTVRYPGFTFPAGNKLAEEAKLEKLAWAPEADERDRIDFIYYYPLESMLSMKDSKLVGPSETVVRGKITENDSKDKILTPSCIWPSDHKGNLATFKIRKKRLEHHHHHH
soluble on expression in E. coli: not soluble

MGKAKVPASKRAPSSPVAKPGPVKTLTRKKNKKKKRFWKSKAREVSKKPASGPGAVVRPPKAPEDFSQNWKALQEWLLKQKSQAPEKPLVISQMGSKKKPKIIQQNKKETSPQVKGEEMPAGKDQEASRGSVPSGSKMDRRAPVPRTKASGTEHNKKGTKERTNGDIVPERGDIEHKKRKAKEAAPAPPTEEDIWFDDVDPADIEAAIGPEAAKIARKQLGQSEGSVSLSLVKEQAFGGLTRALALDCEMVGVGPKGEESMAARVSIVNQYGKCVYDKYVKPTEPVTDYRTAVSGIRPENLKQGEELEVVQKEVAEMLKGRILVGHALHNDLKVLFLDHPKKKIRDTQKYKPFKSQVKSGRPSLRLLSEKILGLQVQQAEHCSIQDAQAAMRLYVMVKKEWESMARDRRPLLTAPDHCSDDA
soluble on expression in E. coli: soluble

MGSDKIHHHHHHMLIKTVLNKFERFKSFIYGDCRLAKVGGSEALVIDIKARRNSKPECPECGKRGKTYDTQPARLFEYVPIWAFKVFFRYAPRRVLCPIHGVKVESLPWGYGKEQMTISYQVYLARWARRLSWKEVAEIFKTSWDSIFRAVQYAVDYGLANRNLDGVTEIGVDEIAVFKGHQYLTMVYQLNAGVRRLLWCGPQRRIRTLLRFFREFGKERSAKLKYVCSDMWAPYLKVIAKRAPNAVNILDRFHIMRKFNEAIDEVRRTEAKEFKAAKQENVLEKGRWLLLKRPENLSEKQTSRLGDLLKLNLSSIKAYLLREDFQQFWDYQRSDFAGKFLDDWVIRTMQTDLEPMKKVARMLRNHKPMILNWFKAKGRLSSGAVEGLNLKAKLTIRKAYGFRTIKCLQVALYHTLGDLPEPLCHHRFC
soluble on expression in E. coli: not soluble

MLSIKHLTKIYSGNKKAVDDISLDIQSGEFIAFIGTSGSGKTTALRMINRMIEATEGQIEIDGKDVRSMNPVELRRNIGYVIQQIGLMPHMTIKENIVLVPKLLKWTKEEKDKRAKELIKLVDLPESFLERYPAELSGGQQQRIGVVRALAAEQDIILMDEPFGALDPITRDTLQDLVKTLQRKLGKTFIFVTHDMDEAIKLADKICIMSEGKVVQFDTPDNILRHPANDFVRDFIGQNRLIQDRPNDKTVEGVMIKPITIQAEATLNDAVHIMRQKRVDTIFVVDSNNHLLGFLDIEDINQGIRGHKSLRDTMQQHIYTVQIDSKLQDSVRTILKRNVRNVPVVDDQQRLVGLITRANVVDIVYDTIWGDSEDTVQTEHVGEDTASSKVHEQHTTNVKVRDIGDDKS
soluble on expression in E. coli: not soluble

MNDETPRCPYNSLYKPLNLIKSKPDGCFKHNGQCTYGKNLVESVDDGNSRTPYNSIYEPLSLNKPKPDGRSSNGKKPVDNEYVNLPVLSEEQKLADKLAAKLRKLEVKEPKSKKRGSKERKKKKSEPVESTYESLATIEGSTNYSGPVTTESLESNVKFHHASQTAYIGVYSSADAEAQVKNRGEFALYHLFEVGNGIDHLTATLPLMLVYYTTTKKHRHYPVRESGGKGMVQYSVDCGYPIVRKHYSLNQLVQYYKSFGSIQMKQEDTCSEEFSWWLE
soluble on expression in E. coli: not soluble

MGSDKIHHHHHHMTNQNYLAKTTNKQYIVKFFGKGTEKLINRQDEKYNLELLKDLGLDVKNYLFDIEAGIKVNEYIESAITLDSTSIKTKFDKITPILQTIHTSAKELRGEFAPFEEIKKYESLIEEQIPYANYESVRNAVFSLEKRLADLGVDRKSCHIDLVPENFIESPQGRLYLIDWEYSSMNDPMWDLAALFLESEFTSQEEETFLSHYESDQTPVSHEKIAIYKILQDTIWSLWTVYKEEQGEDFGDYGVNRYQRAIKGLASYGGSDEK
soluble on expression in E. coli: not soluble

MRTRSGSAEFSGPLRSVAILAQEKLGDCVLLTPLVRNLRQAFPDLEIHLITFSRASANFFMNDPQVTAVHLVKKQPRRYFREVLSRKFDLLFNTKDHPSTWFLLQSALIRARFKVGHNNPFHEGLYDRLLDTEFHAHMAVKNCALLPLLGVTADTEACRPSLEHHHHHH
soluble on expression in E. coli: soluble

MAHHHHHHMEVFNFGKYNGKTFEEVFEKHKSYVTWVKSLESPSGSLLDFKNYVLQKEGKKNSSNMANNNHYNNEKNSNNNYSNNMYENNVRSPNIYNEQYTNNNKMKENYDRNANMNNNEICTNNNRINENNVKSPHYYNNEKNINNYSHECNRSKIAYKHNYSENRNSYNNFEKSSVDTNYTNEEKKKFHNMNSSEYRNYEEKVMSDINNAYNQPEEKKEFDIIVAFEIFSDDSFKIVQKDNNNKKFVSFRNFISKDLFKIISELNPTLKKINNYTCITFEAEKYEYVLNNLKEKCTILGGVHTIPNFLLKCFKNYTKFSEPQRISEITANILTNTMCSYTKQHYDKLDHLLGEKLSVELRNFQREGVFFGLKKNGRVLIGDEMGLGKTLQALALMAFYKDDWPFIVVCPSSIRFQWKDQALRWLSHLIREEHICVVKNGKTDIPSNTKMIIISYELITKNDKYQDKYKSIICDESHYLKNSLSKRTKVITPIIKNAKRCVLLSGTPALNKPSELYEQISSIMPNFFNYHEFCDRYCFKDKNLYTKKIEYVGCKHTEELHLFLTNTIMIRRLKKDVLKELPDKLRSKIPVEIPQKELSEILNYYKKLESKKNINFHDIDNIHLSNWSNSKSEDGDDENLSISHLFKITGYAKVKAIKEYISYLIDADIKFLLFCHHKLVMDEVETFLKEQKCSYIRVDGLTPMEKREIYIKNFQNDDNVKIALLSITACGMGLNLTAANTVVFGELFWVPGQIIQAEDRAHRIGTAHDVVNIHYLIAQNTIDEIVWKIINRKWNTLTTALNGIEDSLNVKEVNKFDKFMVDLTNDTNKSYPTSLVTTPKVRRKSSEHGTFHNSSPKKKNRDIRDFFTANKCNESVEKSWNNNINKRSYHDSPMNDSPNTTLKFLSKKYKTEIN
soluble on expression in E. coli: not soluble

MLNEIICAGFGGQGVLTAGKIIMYVAYKAEKKITWFPSYGNEMRGGSANCNVVVSDEKIANPCVKNPDILLGMNSVSVDKYESLMKKNGYMFVNESLVSKDRKYREDINVIKVPVTEIAQNLGNEKAANICMLGAMVKSLDLFTKEEFESGMCEYFENQGKGKFNSKNVEAFEAGYDYE
soluble on expression in E. coli: not soluble

MGSDKIHHHHHHMGFVKPFSKINGSIIMVILGLLASACGQSGSETGGLVDANEPVSPQPNLGEQQGVLEQNLPVPNNQQTDYFRVILYGNSHVSGLPSLIQLLINTGVPQVRVEVKNVGGGFLDESYYNDAYQARLTATPWTHAIFQGQKYSQSGTSIYPTTAAQKWLDKAKSLGITPILFPEHPQDGKLEEGEYVYQLHQGITSMQSSCLAPIPLVWERVIQLLPDVHLHAPDGNHASSLGNFLTALVFYEVITGRSADLLPYLSNIAISEQIQSIFGQVVSEVLADKPACPTF
soluble on expression in E. coli: not soluble

MGSDKIHHHHHHLTWPEASKAASENGSTLVWPFGACEQHGPHLPLITDTFFAENILIKTLNRLPENMPIWMMPSQSIGFSPEHQAFPGTLSLSADVLISMVTDVGQQIASMGFNRLVFFNAHGGQIGLLQAVSRQLRIQCPSIAVLPCFLWSGVPGLDQLLPEKEVEEGLHAALAETSLMLHMARDLVRNDSYLEIKNVDKQIVTTPKGWSLEGASPCAWLTEDLSSSGVIGDASSSNSELGAALENALVDHWIALFTSLLESDWPPIRSERPVSSS
soluble on expression in E. coli: not soluble

Reference: the DeepSol protein solubility set
